Experimental findings from patent US20180244758A1 (MAPP BIOPHARMACEUTICAL, published 2018) are described below.

In assay [1] the target is T1, EBOV GP on rVSV particles (Ebola virus (EBOV), UniProt Q05320 33-676).
T1 sequence: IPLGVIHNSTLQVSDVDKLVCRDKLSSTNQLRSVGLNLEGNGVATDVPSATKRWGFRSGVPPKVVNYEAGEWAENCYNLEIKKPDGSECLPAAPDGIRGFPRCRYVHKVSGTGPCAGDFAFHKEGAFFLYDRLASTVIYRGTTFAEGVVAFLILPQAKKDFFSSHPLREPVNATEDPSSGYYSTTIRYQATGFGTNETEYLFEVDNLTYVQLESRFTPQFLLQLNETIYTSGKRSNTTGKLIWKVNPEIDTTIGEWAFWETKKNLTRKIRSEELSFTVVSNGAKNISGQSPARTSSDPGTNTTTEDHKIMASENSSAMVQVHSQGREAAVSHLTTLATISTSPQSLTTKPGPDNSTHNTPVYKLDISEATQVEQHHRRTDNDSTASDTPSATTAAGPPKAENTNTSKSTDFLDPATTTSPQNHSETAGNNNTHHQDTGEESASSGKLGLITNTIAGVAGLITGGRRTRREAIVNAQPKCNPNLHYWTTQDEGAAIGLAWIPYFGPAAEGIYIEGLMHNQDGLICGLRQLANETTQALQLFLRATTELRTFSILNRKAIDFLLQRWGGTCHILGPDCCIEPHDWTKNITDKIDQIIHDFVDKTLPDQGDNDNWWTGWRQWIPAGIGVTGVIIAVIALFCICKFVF
The assay can be described thus: cell-based or functional assay.

Another assay concerns the target T2, RESTV GP (Reston virus (RESTV), UniProt Q66799 34-638).
T2 sequence: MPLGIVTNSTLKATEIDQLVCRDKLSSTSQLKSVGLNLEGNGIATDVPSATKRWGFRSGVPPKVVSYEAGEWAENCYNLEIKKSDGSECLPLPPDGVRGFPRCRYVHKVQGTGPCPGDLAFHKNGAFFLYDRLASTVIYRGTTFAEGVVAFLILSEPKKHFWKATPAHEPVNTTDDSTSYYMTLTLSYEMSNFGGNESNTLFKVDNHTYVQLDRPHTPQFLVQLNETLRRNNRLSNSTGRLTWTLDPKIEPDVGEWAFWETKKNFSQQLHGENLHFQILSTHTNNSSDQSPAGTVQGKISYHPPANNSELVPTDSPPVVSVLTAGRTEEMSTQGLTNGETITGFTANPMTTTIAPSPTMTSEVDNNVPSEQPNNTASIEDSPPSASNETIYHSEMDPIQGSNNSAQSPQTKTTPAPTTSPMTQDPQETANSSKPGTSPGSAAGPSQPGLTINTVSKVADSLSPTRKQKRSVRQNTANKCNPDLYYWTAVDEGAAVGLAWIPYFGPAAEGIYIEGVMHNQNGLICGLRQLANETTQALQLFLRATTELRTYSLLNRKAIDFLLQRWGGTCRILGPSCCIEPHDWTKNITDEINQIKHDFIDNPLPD
The assay can be described thus: ELISA, GP antigen coated. In general terms: ELISA stands for enzyme-linked immunosorbent assay.

B1: mAb PE-87 (antibody, V domains shown)
VH: QVQLVQSGVTLVQPGGSLRVSCAASGFTFSSYAMSWVRQAPGKGLEWVSAISGLGGSTYYADSVKGRFTISRDNSKNTLYLQMNSLRAEDTAVYYCAKDHRVWAAGYHFDYWGQGALVTVSS
VL: DIVLTQSPSTLSASVGDRVTITCRASQSISSWLAWYQQKPGEAPKLLISDASSLESGVPSRFSGSGSGTEFTLTISSLQPDDFATYYCQQYYSSPTFGGGTKVEIK
Regarding B1, the “IC50 (nM), neutralization of rVSV-GP” value in assay [1] came to 1 nM.

B2: mAb PE-16 (antibody, V domains shown)
VH: QVQLVQSGAEVTKPGASVKVSCKASGYTFTTYYMHWVRQAPGQGLEWVGIINPSGGITRYAQKFQGRVTLTRDTSTTTVYMELSSLRSEDTAVYYCARDRYPVLFATDYGMDVWGQGTTVTVSS
VL: DIVMTQSPATLSLSPGERATLSCRASQSVSGYLAWYQQKPGQAPRLLIYDASNRATGIPARFSGSGSGTDFTLTISSLEPEDFAVYYCQQRSIWPPGVTFGGGTKVEIK
As for B2, the binding result in the assay with RESTV GP is “no binding (tested: 0.2 µg/ml)”.
